According to patent US20110129473A1 (LABORATORIOS SILANES S A DE C V, published 2011):

Molecular target: T1, recombinant human cytokine TNFα (human, UniProt P01375 77-233)
T1 construct: Recombinant human TNFα used for immunisation, panning and ELISA; also called human TNFα; rhTNF-α
Assay: phage display selection and ELISA on coated TNFα
Experimental: Phage selection rounds, amplification and recovery: There were performed 4 rounds of phage selection with TNFα 1 μg in PBS in an ELISA plate, sealed and incubating over night at 4° C., the cytokine is eliminated and blocking with 150 μl of PBS-BSA (3%), sealed and incubated 1 hr at 37° C.; discarding and adding 50 μl of phage-antibodies for each well, sealed and incubated with TBS-Tween 20 (0.05%) 150 for each well using the pipette to agitate. The solution is discarded and the phage-antibodies specific for TNFα are harvested after adding 50 μl per well of TBS-Trypsin [10 mg/ml]. The plate is sealed and incubated during 30 minutes, 37° C. The phage-antibodies are recovered and used to infect a culture of E. coli ER2537 (2 ml) electro-compentents (DO₆₀₀=1), during 15 minutes at room temperature. The selected phage-antibodies are amplified using serial dilutions incubating the transformants in SB media with carbencillin and helper phage VCSM13 with kanamycin. The phage-antibodies were recovered from the infected cultures of ER2537 cells by centrifugations using first PEG-8000 4% and NaCl 3, and PBS_BSA 1% (2 ml) filtering the supernatant with a 0.22 μm membrane, using 50 μl para to be selected according to the TNFα binding. […]

T1 sequence (P01375 77-233 limits assumed): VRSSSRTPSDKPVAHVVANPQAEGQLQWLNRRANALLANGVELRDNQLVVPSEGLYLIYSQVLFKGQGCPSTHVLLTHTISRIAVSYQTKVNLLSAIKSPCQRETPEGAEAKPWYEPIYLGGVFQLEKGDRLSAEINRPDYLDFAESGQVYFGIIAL

B1: vNAR clone 65 (anti-TNFα vNAR from Heterodontus francisci) (other)
chain: ASLDQTPRTATRETGESLTVNCVLVDANYGLYNTSWYRNNPGSTDREHITIGGRYVESVNKGAKSFSLQIKDMTVEDSGTYYCKARESDYNRVGIRDYKDYDGAGTVLTVN
notes: Shark IgNAR single variable domain (vNAR), expressed from pCOMb3X in E. coli; also called TNF65
- binding result: binds
